Data on 1 molecule can be found in patent US20090304667A1 (POSTECH ACADEMY INDUSTRY, published 2009).

The target of the experiment is T1, PLD2^wt (Homo sapiens, UniProt O14939 1-933).
T1 construct: Ectopically expressed in COS7 or HEK293 cells from a mammalian expression vector; used as cell lysate; also called phospholipase D2
Description: GST pull-down with PLD2-expressing cell lysates.

T1 sequence (O14939 whole entry R172C/T577I): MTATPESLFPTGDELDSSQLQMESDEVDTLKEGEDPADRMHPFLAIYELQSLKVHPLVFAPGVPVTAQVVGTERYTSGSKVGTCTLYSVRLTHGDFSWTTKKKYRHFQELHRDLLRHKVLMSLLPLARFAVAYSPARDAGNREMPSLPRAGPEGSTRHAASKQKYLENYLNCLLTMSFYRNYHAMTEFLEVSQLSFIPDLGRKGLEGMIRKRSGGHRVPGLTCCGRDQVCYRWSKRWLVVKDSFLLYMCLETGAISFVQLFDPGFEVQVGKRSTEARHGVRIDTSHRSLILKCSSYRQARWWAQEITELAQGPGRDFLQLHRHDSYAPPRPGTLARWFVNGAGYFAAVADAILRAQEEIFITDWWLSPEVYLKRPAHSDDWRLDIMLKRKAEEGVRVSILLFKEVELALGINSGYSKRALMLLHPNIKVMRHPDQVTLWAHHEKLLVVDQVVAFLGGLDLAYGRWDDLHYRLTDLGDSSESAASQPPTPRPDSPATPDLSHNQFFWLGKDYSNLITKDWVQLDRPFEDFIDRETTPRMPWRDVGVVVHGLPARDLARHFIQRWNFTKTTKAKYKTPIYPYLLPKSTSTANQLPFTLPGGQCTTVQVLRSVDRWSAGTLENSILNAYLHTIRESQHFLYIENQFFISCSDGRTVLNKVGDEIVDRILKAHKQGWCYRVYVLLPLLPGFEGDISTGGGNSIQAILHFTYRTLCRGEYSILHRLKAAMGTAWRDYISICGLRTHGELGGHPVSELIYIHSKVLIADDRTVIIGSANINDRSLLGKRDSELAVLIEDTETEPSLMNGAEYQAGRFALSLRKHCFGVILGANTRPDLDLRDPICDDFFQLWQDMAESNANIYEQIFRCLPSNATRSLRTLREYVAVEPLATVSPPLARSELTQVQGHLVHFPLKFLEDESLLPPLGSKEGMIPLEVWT

B1: GST-R-Ras (other, UniProt P10301 1-218, looked up)
chain: MSSGAASGTGRGRPRGGGPGPGDPPPSETHKLVVVGGGGVGKSALTIQFIQSYFVSDYDPTIEDSYTKICSVDGIPARLDILDTAGQEEFGAMREQYMRAGHGFLLVFAINDRQSFNEVGKLFTQILRVKDRDDFPVVLVGNKADLESQRQVPRSEASAFGASHHVAYFEASAKLRLNVDEAFEQLVRAVRKYQEQELPPSPPSAPRKKGGGCPCVLL
notes: Expressed in E. coli, on glutathione-Sepharose beads; also called GST-Ras; not shown: GST tag
For B1, the binding result is on record as “no binding”.
